According to the supplement of paper PMC7125110:
± gives the standard error. Fewer inactive variants are shown than the library holds.

B1: glmS ribozyme (parent)
chain: AUAAAAGCGCCAGAACUACAGAAAUGUAGUUGACGAGGAGGAGGUUUAUCGAAUUUUCGGCGGAUGCCUCCAAA

Columns and labels:
Conditions in all cases: with glucosamine-6-phosphate
glucosamine-6-phosphate [1] = variants of: B1; assay: self-cleavage kobs at 40 uM GlcN6P; higher = faster cleavage; RNA array
Procedure, shortened: (§1)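 The measurements used barcoded ribozyme variants on sequenced MiSeq chips, transcribed in situ by E. coli RNA polymerase and tracked at 37 °C with a hybridised Cy3 probe. Glucosamine-6-phosphate, 40 μM to 10 mM in HEPES/KCl/Mg(OAc)2 buffer, was flowed in while tiles were imaged over ~14 h. Baseline-normalised signals, also normalised to non-cleaving reference variants, gave per-tile medians that were fit to one- or two-exponential decays for kobs. kcat and KM resulted from weighted Michaelis–Menten fits across concentrations.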

glucosamine-6-phosphate [2] = variants of: B1; assay: self-cleavage kobs at 640 uM GlcN6P; higher = faster cleavage; RNA array
Procedure, shortened: as §1

glucosamine-6-phosphate [3] = variants of: B1; assay: self-cleavage kobs at 2500 uM GlcN6P; higher = faster cleavage; RNA array
Procedure, shortened: as §1

glucosamine-6-phosphate [4] = variants of: B1; assay: self-cleavage kobs at 10000 uM GlcN6P; higher = faster cleavage; RNA array
Procedure, shortened: as §1

glucosamine-6-phosphate [5] = variants of: B1; assay: self-cleavage kobs at 160 uM GlcN6P; higher = faster cleavage; RNA array
Procedure, shortened: as §1

Variant	self-cleavage kobs at 40 uM GlcN6P (glucosamine-6-phosphate [1])	self-cleavage kobs at 640 uM GlcN6P (glucosamine-6-phosphate [2])	self-cleavage kobs at 2500 uM GlcN6P (glucosamine-6-phosphate [3])	self-cleavage kobs at 10000 uM GlcN6P (glucosamine-6-phosphate [4])	self-cleavage kobs at 160 uM GlcN6P (glucosamine-6-phosphate [5])
C8U C11U C58A C67G	0.00018 ± 3.1e-05 s⁻¹	0.00126 ± 0.00052 s⁻¹	0.000112 ± 4.5e-05 s⁻¹	0.000209 ± 5.4e-05 s⁻¹	–
C8G G43U U65A C71G	< 1e-05 s⁻¹	< 1e-05 s⁻¹	< 1e-05 s⁻¹	< 1e-05 s⁻¹	–
C8U C10A C50A	< 1e-05 s⁻¹	–	–	–	–
C8U C10A C50G	9.57e-05 ± 2e-05 s⁻¹	–	8.56e-05 ± 2.1e-05 s⁻¹	9.18e-05 ± 1.7e-05 s⁻¹	0.000179 ± 2.8e-05 s⁻¹
C8U G38C G43A G44C G63U	< 1e-05 s⁻¹	–	–	< 1e-05 s⁻¹	–
C8A G38C C71A	< 1e-05 s⁻¹	< 1e-05 s⁻¹	–	–	–
C8U A14G A42C	< 1e-05 s⁻¹	–	< 1e-05 s⁻¹	–	< 1e-05 s⁻¹
G9A C61A	< 1e-05 s⁻¹	< 1e-05 s⁻¹	< 1e-05 s⁻¹	< 1e-05 s⁻¹	< 1e-05 s⁻¹
G7U G32U C67G	< 1e-05 s⁻¹	–	< 1e-05 s⁻¹	< 1e-05 s⁻¹	–
G9A G35A	< 1e-05 s⁻¹	< 1e-05 s⁻¹	–	–	< 1e-05 s⁻¹
G9A C58G U65C	< 1e-05 s⁻¹	< 1e-05 s⁻¹	< 1e-05 s⁻¹	–	–
C8A U55G A64C U69G	0.000295 ± 0.00013 s⁻¹	–	–	5.15e-05 ± 2.4e-05 s⁻¹	–
G9A A14G G32U U65A	< 1e-05 s⁻¹	–	< 1e-05 s⁻¹	< 1e-05 s⁻¹	–
G9A G37A	< 1e-05 s⁻¹	< 1e-05 s⁻¹	< 1e-05 s⁻¹	< 1e-05 s⁻¹	< 1e-05 s⁻¹
C8A U47C U65A	< 1e-05 s⁻¹	–	–	–	–
C8U C50U C58G C61U C67U C68G	0.000528 ± 0.0001 s⁻¹	–	–	0.00105 ± 0.00018 s⁻¹	–
G9A A14U A39G	< 1e-05 s⁻¹	–	< 1e-05 s⁻¹	–	–
C8G C50G	0.000322 ± 0.00014 s⁻¹	0.00014 ± 3.4e-05 s⁻¹	0.000123 ± 2.4e-05 s⁻¹	0.000242 ± 7.8e-05 s⁻¹	0.000106 ± 2.1e-05 s⁻¹
C8G C50U	< 1e-05 s⁻¹	< 1e-05 s⁻¹	< 1e-05 s⁻¹	< 1e-05 s⁻¹	< 1e-05 s⁻¹
C8G C50G A53G A64G	0.000149 ± 6.6e-05 s⁻¹	–	–	–	–
C8G G38C C50A G66U	< 1e-05 s⁻¹	< 1e-05 s⁻¹	< 1e-05 s⁻¹	–	< 1e-05 s⁻¹
C8U A53U	< 1e-05 s⁻¹	< 1e-05 s⁻¹	–	< 1e-05 s⁻¹	–
C8U A39U U45G C70G	< 1e-05 s⁻¹	–	–	< 1e-05 s⁻¹	–

Variant	self-cleavage kobs at 40 uM GlcN6P (glucosamine-6-phosphate [1])	self-cleavage kobs at 640 uM GlcN6P (glucosamine-6-phosphate [2])	self-cleavage kobs at 2500 uM GlcN6P (glucosamine-6-phosphate [3])	self-cleavage kobs at 10000 uM GlcN6P (glucosamine-6-phosphate [4])	self-cleavage kobs at 160 uM GlcN6P (glucosamine-6-phosphate [5])
C8U G63U	< 1e-05 s⁻¹	< 1e-05 s⁻¹	–	–	< 1e-05 s⁻¹
C8U G37C A42U U55C	< 1e-05 s⁻¹	–	–	–	–
C8U A15G C34U G35U A36U C68A	< 1e-05 s⁻¹	< 1e-05 s⁻¹	–	–	< 1e-05 s⁻¹
C8U C34G	< 1e-05 s⁻¹	–	–	< 1e-05 s⁻¹	< 1e-05 s⁻¹
G9A G29A U31A G35U A36C C70U	< 1e-05 s⁻¹	–	–	< 1e-05 s⁻¹	–
G9A G62C	< 1e-05 s⁻¹	< 1e-05 s⁻¹	–	< 1e-05 s⁻¹	–
G7U U55G	< 1e-05 s⁻¹	–	–	< 1e-05 s⁻¹	< 1e-05 s⁻¹
C8U G9A	< 1e-05 s⁻¹	< 1e-05 s⁻¹	< 1e-05 s⁻¹	< 1e-05 s⁻¹	< 1e-05 s⁻¹
C8U G9U	< 1e-05 s⁻¹	< 1e-05 s⁻¹	< 1e-05 s⁻¹	–	< 1e-05 s⁻¹
G9A U30C U31C C50A	< 1e-05 s⁻¹	< 1e-05 s⁻¹	–	< 1e-05 s⁻¹	< 1e-05 s⁻¹
G7U G37A C58U U69G	7.21e-05 ± 2.9e-05 s⁻¹	–	–	–	–
C8A C10A C34U G60A	< 1e-05 s⁻¹	–	–	–	–
C8G A36U G37U A52U U54A	< 1e-05 s⁻¹	–	–	< 1e-05 s⁻¹	–
C8A A15G U54A	< 1e-05 s⁻¹	–	–	< 1e-05 s⁻¹	–
C8U A64G C68U	< 1e-05 s⁻¹	–	–	< 1e-05 s⁻¹	–
C8A A53C G59A C68A	< 1e-05 s⁻¹	–	–	< 1e-05 s⁻¹	–
C8G U31A U56A C70A	< 1e-05 s⁻¹	–	–	< 1e-05 s⁻¹	–
G9A G41U	< 1e-05 s⁻¹	< 1e-05 s⁻¹	< 1e-05 s⁻¹	–	< 1e-05 s⁻¹
G9A A52U	< 1e-05 s⁻¹	< 1e-05 s⁻¹	< 1e-05 s⁻¹	< 1e-05 s⁻¹	< 1e-05 s⁻¹
C8A G43A	< 1e-05 s⁻¹	< 1e-05 s⁻¹	< 1e-05 s⁻¹	–	< 1e-05 s⁻¹
C8G U45G U47G C58U G66U C71U	< 1e-05 s⁻¹	–	–	–	–
C8A G62U	< 1e-05 s⁻¹	–	–	5.53e-05 ± 1.6e-05 s⁻¹	< 1e-05 s⁻¹
C8G C34U U55G	< 1e-05 s⁻¹	–	–	< 1e-05 s⁻¹	–

Variant	self-cleavage kobs at 40 uM GlcN6P (glucosamine-6-phosphate [1])	self-cleavage kobs at 640 uM GlcN6P (glucosamine-6-phosphate [2])	self-cleavage kobs at 2500 uM GlcN6P (glucosamine-6-phosphate [3])	self-cleavage kobs at 10000 uM GlcN6P (glucosamine-6-phosphate [4])	self-cleavage kobs at 160 uM GlcN6P (glucosamine-6-phosphate [5])
C8A G41U C50G	< 1e-05 s⁻¹	–	–	–	–
G9A A15G U30C	< 1e-05 s⁻¹	–	–	–	–
C8U U65C	< 1e-05 s⁻¹	< 1e-05 s⁻¹	< 1e-05 s⁻¹	–	–
C8G U57G C70G	0.0017 ± 0.00055 s⁻¹	–	–	–	–
C8A C50U C67G	< 1e-05 s⁻¹	–	–	–	–
C8U G51C	< 1e-05 s⁻¹	–	< 1e-05 s⁻¹	< 1e-05 s⁻¹	< 1e-05 s⁻¹
C8U U55C	< 1e-05 s⁻¹	< 1e-05 s⁻¹	< 1e-05 s⁻¹	< 1e-05 s⁻¹	–
C8G C16U	< 1e-05 s⁻¹	< 1e-05 s⁻¹	< 1e-05 s⁻¹	< 1e-05 s⁻¹	< 1e-05 s⁻¹
C8U G40U C70A	< 1e-05 s⁻¹	–	–	< 1e-05 s⁻¹	–
C8A A48C	< 1e-05 s⁻¹	< 1e-05 s⁻¹	< 1e-05 s⁻¹	< 1e-05 s⁻¹	< 1e-05 s⁻¹
G7U G41U U46A G62U	< 1e-05 s⁻¹	< 1e-05 s⁻¹	< 1e-05 s⁻¹	< 1e-05 s⁻¹	–
C8U A33U G66C	< 1e-05 s⁻¹	–	–	–	–
C8U A15U U30G G35C G41U	< 1e-05 s⁻¹	< 1e-05 s⁻¹	< 1e-05 s⁻¹	–	–
C8U G35C	< 1e-05 s⁻¹	–	< 1e-05 s⁻¹	< 1e-05 s⁻¹	< 1e-05 s⁻¹
C8U A12C C61G	< 1e-05 s⁻¹	–	< 1e-05 s⁻¹	< 1e-05 s⁻¹	–
C8A A14G	< 1e-05 s⁻¹	< 1e-05 s⁻¹	–	–	–
G7U U30G C50G C61A	0.000244 ± 8.9e-05 s⁻¹	–	–	0.000292 ± 7.4e-05 s⁻¹	–
G9A A14C G44U U47C	< 1e-05 s⁻¹	–	–	–	–
G7U G32A G43A	< 1e-05 s⁻¹	< 1e-05 s⁻¹	–	< 1e-05 s⁻¹	< 1e-05 s⁻¹
C8U G43U G44U C71A	< 1e-05 s⁻¹	< 1e-05 s⁻¹	–	–	–
C8A G40U	< 1e-05 s⁻¹	< 1e-05 s⁻¹	< 1e-05 s⁻¹	< 1e-05 s⁻¹	< 1e-05 s⁻¹
G9A G63A	< 1e-05 s⁻¹	< 1e-05 s⁻¹	< 1e-05 s⁻¹	< 1e-05 s⁻¹	–
G7U G51A	< 1e-05 s⁻¹	–	< 1e-05 s⁻¹	< 1e-05 s⁻¹	< 1e-05 s⁻¹

Variant	self-cleavage kobs at 40 uM GlcN6P (glucosamine-6-phosphate [1])	self-cleavage kobs at 640 uM GlcN6P (glucosamine-6-phosphate [2])	self-cleavage kobs at 2500 uM GlcN6P (glucosamine-6-phosphate [3])	self-cleavage kobs at 10000 uM GlcN6P (glucosamine-6-phosphate [4])	self-cleavage kobs at 160 uM GlcN6P (glucosamine-6-phosphate [5])
C8A A42G C68U	< 1e-05 s⁻¹	–	–	< 1e-05 s⁻¹	–
C8G C67U	< 1e-05 s⁻¹	< 1e-05 s⁻¹	< 1e-05 s⁻¹	–	< 1e-05 s⁻¹
C8U G38U U49G C50A C68G	0.00105 ± 0.00026 s⁻¹	–	–	0.000545 ± 0.00014 s⁻¹	–
C8A C34G	< 1e-05 s⁻¹	< 1e-05 s⁻¹	< 1e-05 s⁻¹	< 1e-05 s⁻¹	< 1e-05 s⁻¹
G9A C68G	< 1e-05 s⁻¹	< 1e-05 s⁻¹	< 1e-05 s⁻¹	< 1e-05 s⁻¹	< 1e-05 s⁻¹
C8G U54G	< 1e-05 s⁻¹	–	–	–	–
C8U U55A C58A	< 1e-05 s⁻¹	< 1e-05 s⁻¹	–	< 1e-05 s⁻¹	–
C8G U47A A48C C70G	< 1e-05 s⁻¹	< 1e-05 s⁻¹	–	< 1e-05 s⁻¹	< 1e-05 s⁻¹
G7U G35U U46A C67U U69C	< 1e-05 s⁻¹	< 1e-05 s⁻¹	< 1e-05 s⁻¹	–	< 1e-05 s⁻¹
G9A U57G C67U	< 1e-05 s⁻¹	–	–	< 1e-05 s⁻¹	–
C8A A14G C58U	< 1e-05 s⁻¹	–	–	< 1e-05 s⁻¹	–
C8G C11G	< 1e-05 s⁻¹	–	–	< 1e-05 s⁻¹	< 1e-05 s⁻¹
G7U G63A	< 1e-05 s⁻¹	–	–	< 1e-05 s⁻¹	–
G9A C11G A53G	< 1e-05 s⁻¹	–	–	–	–
C8G U30A	< 1e-05 s⁻¹	< 1e-05 s⁻¹	–	< 1e-05 s⁻¹	< 1e-05 s⁻¹
G7U U54C	< 1e-05 s⁻¹	< 1e-05 s⁻¹	–	< 1e-05 s⁻¹	< 1e-05 s⁻¹
C8A G9U	< 1e-05 s⁻¹	< 1e-05 s⁻¹	< 1e-05 s⁻¹	< 1e-05 s⁻¹	< 1e-05 s⁻¹
G7U G9C C11G A12C U55A	< 1e-05 s⁻¹	–	–	< 1e-05 s⁻¹	–
G7U G44C	< 1e-05 s⁻¹	< 1e-05 s⁻¹	< 1e-05 s⁻¹	< 1e-05 s⁻¹	< 1e-05 s⁻¹
C8G G51U	< 1e-05 s⁻¹	< 1e-05 s⁻¹	–	< 1e-05 s⁻¹	–
C8A G38U C50G	4.1e-05 ± 2e-05 s⁻¹	–	–	–	–
